Test results from the supplement of paper PMC12636428.

Test system: Saccharomyces cerevisiae
Assay: transcriptional activation domain activity (GFP:mCherry ratio, weighted mean of sorted bins, harmonized to initial dataset scale) (arbitrary fluorescence ratio units); higher = stronger transcriptional activation
Conditions: beta-estradiol 1 µM; induction time 4 h
Description: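 53-aa protein tiles (fungal proteins plus yeast TF control tiles) fused C-terminally to a DBD-estrogen-binding domain-mCherry synthetic TF, integrated in S. cerevisiae (URA3 locus) with a GFP reporter. Cells were induced with 1 uM beta-estradiol for 4 h at 30 C, FACS-sorted into 8 bins by GFP:mCherry ratio and barcodes sequenced. Activity is the read-weighted mean bin fluorescence (GFP:mCherry), averaged over barcodes (median 12); tiles under 50 reads were discarded. New active-learning values were harmonized by linear fit onto the scale of the initial (Hummel et al.) dataset. The assay saturates at low and high signal.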

“SSTNPGTESAKPEKPKRAPRQKASSKKADSKPKRTTARSKKAVKLAAEKLLSP” was tested. Which “transcriptional activation domain activity” value did it give?
Its value is 15600.

Which “transcriptional activation domain activity” value does the source give for “MKFCFIVWLSCMCIYFAKVIVVFLIALCLDNIFPFHIPNTKLLIPSTHFMITW” here?
The value was 57500.

For “MNKLFFKLRICVLIKIMLLQFVIIATIYNCNYFIIIVMYICLLLLLPFKLVYD”, which “transcriptional activation domain activity” value is on record?
The value was 52100.

For “MGFLTVHSCVFCFVVWVFFFPFFFLRDWFFSHSIFFLSLFFLVFFYIHLFLLG”, which “transcriptional activation domain activity” value is on record?
Its value is 43700.

Which “transcriptional activation domain activity” value does the source give for “TKGEFHKIAVIFTSTVVAGMVIMYFWILKQIPFMVGLVVWGWVGISQGFFAVN” here?
Its value is 55800.

With “MVVILYFFFYIFIKNRLGLVRVIFLFLVYHIQLLVLFFFGPFLPLVLLLLLLL” as the sequence, how does the “transcriptional activation domain activity” value read?
Its value is 35900.

Which “transcriptional activation domain activity” value does the source give for “NLCLLIAASLISIISLVNLLDFFLTWFGQFITIENLTLELILGYILYPYAWLL” here?
Its value is 40000.

Which “transcriptional activation domain activity” value does the source give for “GVENQVDFHHNEKHKLMLLKALGYRVLADINKVSVVMPAALVGTVVLTLRGRG” here?
Its value is 44500.

Which “transcriptional activation domain activity” value does the source give for “PRVLHGLELICHIAYLIIILHFIFDWRIDGHMPEWRFYGAREYILFIYSLSIL” here?
The value was 31100.

Which “transcriptional activation domain activity” value does the source give for “NIDPAAIDDKWLSEFINNSDPKSTFKINFNHFNDIGFIYSPPSSRSSIPNKSP” here?
Its value is 101000.

Which “transcriptional activation domain activity” value does the source give for “HLNPSWIFLFLFLFLFSPSPFYFLFLFFFFFFGGVPGNGFGFGILLYFFAAGI” here?
The value was 45700.

With “LELQHFLLSFAHFPLLVWVFSWVLVFGFNWFLSIYGVLELFFLFCSHCWIAWS” as the sequence, how does the “transcriptional activation domain activity” value read?
Its value is 63900.

How did the “transcriptional activation domain activity” value turn out when “KLEHEPGPEPKPEAEEKPKKARGRPKKAIPEGGYTPKKARGRPKKVLDPEAEV” was run?
Its value is 14000.

How did the “transcriptional activation domain activity” value turn out when “VLLVVMFFGVLHKRNATHLWNLLYFQGLFWILAATMTELPSVVCLPYSPPLRC” was run?
Its value is 57400.

With “YVLVLTYLNYFVLILFGHMRDILGKVFKAQAYVHLKTVNGYAPLVSDFDSFYN” as the sequence, how does the “transcriptional activation domain activity” value read?
Its value is 63900.

How did the “transcriptional activation domain activity” value turn out when “IWMILEIARSTLVFFRIYNFGHFVYNLVTKFDLMAIIPLLLVTLLPQIWFFCF” was run?
Its value is 33800.

How did the “transcriptional activation domain activity” value turn out when “MDRQQNGSKRTESVRQPVSCEPCRRRKIKCSRSHPPCDTCRRRRCPDSCVYKS” was run?
Its value is 43700.

How did the “transcriptional activation domain activity” value turn out when “SFTSKLNNPQFLGSLDLEILEELEKLISAQEFSRNFTEDVDESLQSEIDLMNY” was run?
Its value is 146000.

With “GILFATEGLYTMRFSSWYVRGLFISASIMLFFCYVVARVIIVVVMFTSLRGLP” as the sequence, how does the “transcriptional activation domain activity” value read?
Its value is 49900.

With “MLLSLYLLTPFFIDMLLALHPFTLLCVHLPTCPCILLSCFRSYPCLSLWFPFS” as the sequence, how does the “transcriptional activation domain activity” value read?
Its value is 45900.

For “FLAYVAKRIVWAIIRTIVYLRRDYLGYLSLGRGRSPSNVRGWLANKWYQFLLL”, which “transcriptional activation domain activity” value is on record?
Its value is 50100.

With “SFPIEGLYCLIKSLLKLKNLSLHGKIWWGDLKMLLPLLSKLDFWGIGELLLFD” as the sequence, how does the “transcriptional activation domain activity” value read?
The value was 67000.

With “KSKSSRSSRRREGEEDDDRRRRRHRHRSRSRSRSRGRGGGSDDGSKEQRRSSR” as the sequence, how does the “transcriptional activation domain activity” value read?
Its value is 40100.

How did the “transcriptional activation domain activity” value turn out when “RVYKRDPMLYLSSGWQYQGHFVYVTRLDVIHLSSWLRVFCFQIQHFSSVWWVL” was run?
The value was 59000.

How did the “transcriptional activation domain activity” value turn out when “WLFCFICYPLPLHPISYQIAPPFYSIFFVILLTIVFFLLLFLFVSSFLYLRLG” was run?
Its value is 70000.

For “MRAAPKYITFFLCYGSWFTSMTRGLSCPCWVYFIGHVSIVVVVVFFTFVYIHG”, which “transcriptional activation domain activity” value is on record?
The value was 38800.

Which “transcriptional activation domain activity” value does the source give for “RRTSSTSSPSRSSSGTRARARSRSSRSTRSAAACSPSTRRAPRPTARPSSRPS” here?
The value was 27400.

With “EEGEGPREEGGEEAHEQRDEGRHEEREERKEERREEPVRAAVPVRAAEPAPVV” as the sequence, how does the “transcriptional activation domain activity” value read?
Its value is 23000.

Which “transcriptional activation domain activity” value does the source give for “MFLLAFCIQAEYQLKLLYMFFYFFCSYVSSLIVFVSYFGVLVVLAGLNCFFTY” here?
Its value is 50300.

“YAEWLLQPEQHNGTWVADVLWPAINLDLQWISQHWNESSWDLWWSPVWAGSYW” was tested. Which “transcriptional activation domain activity” value did it give?
Its value is 66400.

Which “transcriptional activation domain activity” value does the source give for “GEGERGSDGRQKEGARERGRRRETRKQNQKRGRGGRGGRGRGEGGAKSETQET” here?
The value was 17200.

How did the “transcriptional activation domain activity” value turn out when “IGGFLGCLLMGHICLIILVFLCQTLVYREVTRLFTLMDSKPTLNWYFFATANY” was run?
The value was 53000.

For “SFPIRHIEDKLRNKGHVKTGILSANDGVPPTPNLLDYDWNNLNITGYEWISSE”, which “transcriptional activation domain activity” value is on record?
The value was 93900.

“KEESGAKTPQSPASKSADDKNATREKEGAGSPDAAKGKGNEEVQTESGRDDRK” was tested. Which “transcriptional activation domain activity” value did it give?
Its value is 28400.

With “MDESDGERGGGYGVFFLLFFFFFFLSFLFSFWLFLLFTFVLISFFGAITLLKE” as the sequence, how does the “transcriptional activation domain activity” value read?
Its value is 25600.

Which “transcriptional activation domain activity” value does the source give for “MFPYSWFRLLFRLLFLWPFLLFQLLFPWPTTLLILWPFRLLILWPIRLLILWP” here?
Its value is 73200.

“ITQVEDRSKGYLIGLVKELVAEYVEDLNALVLLACSLKVGIQVSSAAGMIYKK” was tested. Which “transcriptional activation domain activity” value did it give?
The value was 53600.

For “EIDEAAGEINEAAGEVNEAGEVDKAGEVDEAGEVNDEAGKIDKAAGEIDEAAG”, which “transcriptional activation domain activity” value is on record?
Its value is 30600.

“LPLYNFVRQHLCVFLDRYEHMLTRFLTLGNIMVVSSAVRRGAYWHLLETCQHT” was tested. Which “transcriptional activation domain activity” value did it give?
The value was 50200.

For “YECALGIYSCVSFFVGVFYYIFIIFLSPIIFILLIILPLRISFVLCMAILLFG”, which “transcriptional activation domain activity” value is on record?
Its value is 28600.

How did the “transcriptional activation domain activity” value turn out when “DRDRSRSRSRSRSKSPRRHRRSSRSPRRRGADKSPERAAPAASSKQAEARPRC” was run?
Its value is 31100.

With “WLVKVYRLGPFSRDKRYGFAKLLGLKLNYDVKQVKQKPSFQLSMALALLNKCT” as the sequence, how does the “transcriptional activation domain activity” value read?
Its value is 64500.

For “RKDALLKTSFGGTVFAVRQIGGDRFHGMPFVHLMVIVICLHWTWLRAVIFLGR”, which “transcriptional activation domain activity” value is on record?
The value was 52800.

“GFVVQQLQKLFLTCIALKLVQRVNSLNKLFKTAVGSLPVILSLLGLWIILFLF” was tested. Which “transcriptional activation domain activity” value did it give?
Its value is 47200.

With “PGKCINEFIEVVCKLADSGRLSLRMLVDIVVLFWNLTRVHCEQFSHKFLRLLH” as the sequence, how does the “transcriptional activation domain activity” value read?
The value was 15900.

How did the “transcriptional activation domain activity” value turn out when “VAVARTKARKAVVGIEKVEIAAEVEATPEIVTAARTRERKAVVGIESAETVAE” was run?
Its value is 45800.

With “MRQRLGGQLFSKSFFYALLVTSTWSSKLVYLSPHFTSLPPLLILLYAPTFLLL” as the sequence, how does the “transcriptional activation domain activity” value read?
The value was 60600.

With “MHSMRHAPSSFFLLFRPVIVFMAVVFSNFYLLPLLFSLLYVILCFFLYILFVS” as the sequence, how does the “transcriptional activation domain activity” value read?
Its value is 34600.

With “MMKVVGFLYQIYLIIYCVGWWFLLLVLFVFSFSFFFFLFFFFLFFSSTFYSLS” as the sequence, how does the “transcriptional activation domain activity” value read?
The value was 43100.

How did the “transcriptional activation domain activity” value turn out when “RPDVVLIQAGLWARFWLFIVISHALLEYHTFADGICLCYVSTVVFLIRHAKLW” was run?
Its value is 68100.

Which “transcriptional activation domain activity” value does the source give for “MLFYFYFYFYFYAFSIFSFYVIFYFLYFFFLFRPGLLYLLLLFFSILFVLFLP” here?
The value was 64900.

For “MSNVYNCHPALLCYLALPCPTHLCLLSSLFPSVVSTVHAFLLLFLALCPISWI”, which “transcriptional activation domain activity” value is on record?
The value was 71400.

For “PTTSFFFWYRLYCSVLLSIGILISIPTLWILPSCFLPNHWKALWVVVLSFLGW”, which “transcriptional activation domain activity” value is on record?
Its value is 52400.

Which “transcriptional activation domain activity” value does the source give for “CASPIFRLKYLYKIPSGIAAMAHIFSVVNHFTFFELMWLMERWNFRRALLGLM” here?
The value was 62900.

With “MLMIVVNDTIFYITVISHILLAYYGLVTIDNGLLLSNPTWYCPLNYTLIATCI” as the sequence, how does the “transcriptional activation domain activity” value read?
The value was 61700.

With “DGGEAGEGGTEGAGGGAGGEEGQQGKRPEEGKRKERHRPAEEHGKEKNHGRGE” as the sequence, how does the “transcriptional activation domain activity” value read?
The value was 30700.

Which “transcriptional activation domain activity” value does the source give for “PGEVSEAEANGEVKAEGEVVATDDAAKPKKKKSKKSRKARAAKAATEDEEGAA” here?
The value was less than 6570.

Which “transcriptional activation domain activity” value does the source give for “PFPLSFPLPFLLSFPLPFLLSFPLISSQPFPLSLLSFPPFPPLSPLPPPSPFF” here?
The value was 44600.

Which “transcriptional activation domain activity” value does the source give for “ETKGASGEGGKSTSESGSASSSSSKGEGKAAGEQGSSGSSSGSSSESGSKEKT” here?
Its value is 30100.

Which “transcriptional activation domain activity” value does the source give for “DHFDAPEPWSMFWYDPALDGTWWDQLPLDHFFPSELGAWASARSSWTDLTGSY” here?
The value was 155000.

Which “transcriptional activation domain activity” value does the source give for “ICVLEKMLLFYFYFPLPFKLTLDQHLSLFSLLCFFFRVMPYTFWLKSYPMLVL” here?
Its value is 74200.

For “CHLTVIYFMSVPVIYLRLARLLFLEILTAGRIAIEGNGLGQGSLLAKTLRGRQ”, which “transcriptional activation domain activity” value is on record?
The value was 66500.

For “TVDSLLTFVPFFLLTLLFLLISLFLFILFFLIFFFLFIPFSSFLFIYFSLSFH”, which “transcriptional activation domain activity” value is on record?
Its value is 32200.

With “AKAEAKTTKTAKKPTLEKKATTSKATTAKKPAAKPATKAKETKAAKEPKAKAA” as the sequence, how does the “transcriptional activation domain activity” value read?
Its value is 40800.

With “MSFFLYYFFYLLQGVIIHIIYTYISLFIPLHSFIIISFIFFFFIIFTLFFLLF” as the sequence, how does the “transcriptional activation domain activity” value read?
Its value is 70800.

How did the “transcriptional activation domain activity” value turn out when “SSATDSNPNTNLEDSLFFDHDLLSSSITNTNNGQGSNNGRQASKDDTLNLLDT” was run?
The value was 37900.

Which “transcriptional activation domain activity” value does the source give for “DSNYLAFLKFDDLENEKFHSSASSISSPSYSSPSFSSYRNRKKSEFMDDESCT” here?
The value was 73200.

With “FQFPIDFTNDFSDGFSLDADIGQFMDPLLLTSFLPSPIPFDDGTELSSLELLH” as the sequence, how does the “transcriptional activation domain activity” value read?
Its value is 167000.

How did the “transcriptional activation domain activity” value turn out when “MLLKVSEPFSLFVYISGSAITLFSFFKFLFSLFFLLLILFFFPLFFFFPIVIV” was run?
Its value is 80000.

“YKNLSKYPIVKSAVALISLVQSLCRTMHSMPFHTEEYIRMIEVVLLKYYEKCY” was tested. Which “transcriptional activation domain activity” value did it give?
The value was 34300.

Which “transcriptional activation domain activity” value does the source give for “IPIQLGCMHLHSPWMTYALLYQLIYPMMMIYNLVNCIYFGTGTQMLWWMVSIV” here?
The value was 73000.
